Data: the nanobody polyreactivity screen of Harvey et al. (2022)

Test: yeast display, Sf9 membrane polyspecificity reagent, FACS + sequencing; frameworks hold sequencing errors
Method in brief: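 A nanobody's polyreactivity label depends on the gate it was sorted from. Yeast display cells were stained with 10% biotinylated, detergent-solubilized Sf9 membrane reagent for 1 hour at 4 °C, enriched on streptavidin microbeads and sorted by FACS. The low and high (top ~1%) gates were set on anti-HA fluorescence for expression and streptavidin fluorescence for reagent binding.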

| Sequence | polyreactivity (PSR sort gate) |
| --- | --- |
| QVQLVESGGGLVQAGGSLRLSCADSGRTFYHYAMGWYRQAPGKERELVATITSSGGNTYYADSVKGRFTISRDNAKNTVYLQINSLKPEDTAVYYCAADWFVYQYSFGSSEYYYWGQGTQVTVSS | low polyreactivity |
| QVQLVESGGGLVQAGGSLRLSCAASGFTFVYYAMGWYRQAPGKERELVAAISTRGGSTYYADSVKGRFTISRDNAKNTVYLQMTSLKPEDTAVYYCAARSYPPGLRFDYWGQGTQVTVSS | high polyreactivity |
| QVQLVESGGGLVQAGGSLRLSCAASGRIFGVYAMGCYRQATGKERELVATNTSGGSTSYADSVKGRFTISRDNAKNPVYLQMNSLKPEDTAVYYCNAPYSFFWQQMNYWGQGTQETVSS | low polyreactivity |
| QVQLVESGGGLVQAGGSLRLSCAASGGTFRVYVMGLYRQATGKERELVAAISRGGGSTYYADSVKGRFTISRDNAKNTVYLQMNSLKPEDTAVYYCAARVWRYPWRASEYDYWGQGTQVTVSS | high polyreactivity |
| QVQLVESGGGLVQAGGSLRLSCAASGRTFKKYAMGWYRQAPGKERELVSAITGSVGSTYYADSVKGRFTISRDNAKNTVYLQMNSLIPEDTAVYYCAAYAYGVWHSQDGGNYWGQGTQVTVSS | low polyreactivity |
| QVQLVESGGGLVQAGGSLRLSCAASGYTFGTYAMGWYRQAPGKERELVAAITWRGGSTYYADSVKGRFTISRDNAKYTFYLQMNSLIPEDTAVYYCNADIKQRSDRYDYWGQGTQVTVSS | high polyreactivity |
| QVQLVESGGGLVQAGGSLRLSCAASGSTFYVNAMGWYRQAPGKERELVAYADSVKGRFTISRDNAKNTVYLQMNSLKPEDTAVYYCNADIEYRPGHGRLGDYDYWGQGTQVTVSS | low polyreactivity |
| HVQLVESGGGLVQAGGCLRLSCAASGRICIFYAMGWYRQAPGKERELVAAISSGPSTTYADSVKGRFTISRDNAKNTVYLQMNSLNPEDTAVYSCARRDGTTQALFGYDYWGQGTQVTVSS | low polyreactivity |
| QVQLVESGGGLVQAGGSLRLSCAASGRIFRWYAMGWYRQAPGKERELVARITSGSSTYYADSVKGRFTISRDNAKNTVYLQMHSLKPEDTAVYYCATRTLQPGYTYPRYYWGQGTQVTVSS | high polyreactivity |
| QVQLVESGAGLVQAGGSLRLICAASGSTSTTYTMGWYRQAPGKERELVAAISYSGGSTYYADSVKGRFTISRDNAKNTVYLQMNSLKPEDTAVYYCAAQSFVGWREYESWGQGTQVTVSS | high polyreactivity |
| QVQLVESGGGLVQAGGSLRLSCAASASIFADNTMGWYRQAPGKERELVAAITSSGRTYYADSVKGRFTISLDNAKNTVYLQLNSLKPEDTAVYYCAAVIYFHDYSPYYYWGQGTQVTVSS | high polyreactivity |
| QVQLVESGGGLVQAGGSLRLSCAASGRILGQYAMGWYRQAPGKERELVAAISFRGGRTYYADSVKGRFTISRDNAKNTVYLQMNSLKPEDTAVYYCATDGWRSPYYRNYRYFYTEYYYWGQGTQVTVSS | high polyreactivity |
| QVQLVESGGGLVQAGGSLRLSCAASGFTFFDYVMGWYRQAPGKERELVAAISSSGGSTNYADSVKGRFTISRDHAKNTVYLQMNSLKPEDTAVYYCNKVTYGYAYWRYDGYDYWGQGTQVTVSS | low polyreactivity |
| QVQLVESGGGLVQAGGSLRLSCAASGRIFYLYGMGWYRQAPGKERELVAGITGSGGNTYYADSVKGRFTISRDNAMNTVYLQMNSLKPEDTAVYYCIARFRARPRMGYWGQGTQVTLSS | high polyreactivity |
| QVQLVESGGGLVQAGGSLRLSCAASRFIFSWYAMGWYRQAPGTERELVATISSSGGRTHYADSVKGRFTISRDNAKNTVDLHMKSLKPEVTEVYYCAAHPFYYFTTVYYWGQGTQVTVSS | high polyreactivity |
| QVQLVESGGGLVQAGGSLRLSCAASGSIFWVYAMGWYRQAPGKERELVAAISQSGGSTYYADSVKGRFTISRDNAKNTVYLQMNSLKPEYTAVYYCAAYVRGQNYDYWGQGTQVTVSS | high polyreactivity |
| QVQLVESGGGLVQAGGSLRLSCAASGSTFVSYAMGWYRQAPGKERELVAAISISDSSTYYADSVKGRFSISRDNAKNTVYLQMNSLKPEDTAVYYCNRYDFWGQGTQVTVSS | low polyreactivity |
| QVQLVESGGGLVQAGGSLRLSCAASGSILVRYAMGWYRQAPGKERELVAAITYSVGSTYYADSVKGRFTISRDNAKNTVYLQMNSLKPEDTAVYYCAASGGTEVLLMDYWGQGSQVTVSS | low polyreactivity |
| QVQLVESGGGLVQAGGSLRLSCAASGFTFGHYAMGRYRQAPGKERELVAAIRWSGGSTYYADSVKGRFTISRDNAKNTVYLQMNSLKPEDTAVYYCAADGEDSLWTGYDYDYWGQGTQVTVSS | low polyreactivity |
| QVQLVESGGGLVQAGGSHRLSCAASGFTFNKYAMGWYRQAPRKERELVAAISSSGGRTSYADSVKGRFTISRDNAKNTVYLQMNSVKPEDTAVYYCNKVSTADMGYWGQGTQVTVSS | high polyreactivity |
| QVQLVESGGGLVQAGGSLRLSCAASGSTFYLYAMGWYRQAPGKEREFVARISASGGNTYYADSVKGRFTISRDNAKNTVYLQMNSLKPEDTAVYYCATRGSRYPYVAYNYWGQGTQVTVSS | high polyreactivity |
| QVQLVESGGGLVQAGGSLRLSCAASGFICGLNAMGLYRQAPGKERELVAAIRSASSTNYADSVKGRFTISRDNAKNTVYLQMNSLKPEDTAVYYCAAEYVTYQQGFWGYDYWGQGTQVTVSS | low polyreactivity |

| Sequence | polyreactivity (PSR sort gate) |
| --- | --- |
| QVQLVESGGGLVQAGGSLRLSCAASGFIYYGYAMGWYRQAPGKEMELVAAITSGGSTTYADSVKGRFTISRDNAKNTVYLQMNSLKPVDTAVYYGAASVCREVGWGQGTQVTVSS | high polyreactivity |
| QVQLVESGGRLVKAGGSLRLSCAASGRNFFYYTMAWYRQAPGKERELVATISWRGGSTYYADSVKGRFTFSRDNAKNTDYLLMNSLKPEETAVYYCAARYRCRYDSWGQGTQVTVSS | high polyreactivity |
| QVQLVDSGGGLVQAGGSLRLTCAASGRTFRYNAMGWYRQAPGKERDLVARISRGGSPYADSVKGRFTISRDNAKNTVYLQMNSLKPEDSAVYYCAADPTKHNQSEYYYWGQGTQVNVSS | low polyreactivity |
| QVQLVESGGGLVQAGGSLRLSCAASGLTFKFNAMGWYRQAPGKERELVAAITYSGGSTYYADSVKGRFTISRDNAKNTVYLQMNSLKPDDTAVYYCAAEGWWGYYRYNYWGQGTQVTVSS | high polyreactivity |
| QVQLVESGGGLVQAGGSLRLSSAATGFTFDKYAMGWYRQAPGKERELVAASSGSGGTTYYADSVKGRFTISRDNAKNTVYLQMNSLKPEDTAVYYCATRLYSIYSYGYWGHGTQVTVSS | high polyreactivity |
| QVQLVESGGGLVQAGGSLRLICAASGRTFSSNAMGWYRPAPGNERELVAAISTSGGRTYYADSVKGRCTISRDNAKNTVYLQMNSLKPEDTAVYYGAAEYVGTGTPDDYAYWGQGTQVTVSS | high polyreactivity |
| QVQLVESGGRLVQAGGSLRLSCAASGFTFKYYAMGWYTQAPGKERELVAAIRRSAGSTNYADSVKGRFTISRDNAKNTVYLQMNSLKPEDTAVYYCNTVGTRQPMDYWGQGTQVTVSS | high polyreactivity |
| QVQLVESGGGLVQAGGSLRLSCAASGSIFGSNAMGWYRQAPGKERELVAAITNTGRTNYADSVKGRFTISRDNAKNTVYLQMNSLKPEDTAVYYCNTDGYEFTHFAAGSGWRFDYWGLGTQVTVSS | low polyreactivity |
| QVQLVESGGGLVQAGGSLRLSCAASGSTSRTYAMGWYRQAPGKERELVAAINSGGTTYYADSVKGRFTISRDNAKNTVYLQMNSLKPEDTAVYYCARRDFWWSRRIFGYWGQGTQVTVSS | high polyreactivity |
| QVQLVESGGGLVQAGGSLRLSCAASGRTLTRYTMGWYRQAPGKERELVATISRSGGNTHYADSLKGRFTISRDNAKNTVYFQMNSLKPEDTAVFYCNAVRYAIYGYDYWGQGTQVTVSS | high polyreactivity |
| QVQLVESGGGLVQAGGSLRLSCAASGSTFGYYTMGWYRQAPGKERELVAAISYSGGRTFYADSVKGRFTISRDNAKNTVFLQMHCLKPEDTAVYYCNNRYIPSFLSHLDYWGQGTHVTVSS | high polyreactivity |
| QVQLVESGGGLVQAGGSLRLSCAASGSTRGYAMGWYRQAPGKEREMVAAIRSSGSTNYADSVKGRFTISRDNAKNTVYLQMNSLKPEDTAVYFCATDGHYLYSWYKYDYWGQGTQVTVSS | low polyreactivity |
| QVQLVESGGGLVQAGGSLRLICAASGSTQSPYAMGWYRQAPGKERDFVAAISTSGVSTYYADSVKGRFTISRDNAKNTVDLQMNSLKPVDTAVYYCATRYYIYGSTLKLYDYWGQGTQVTVSS | high polyreactivity |
| QVQLVESGGGLVQAGGSLRLRCAASGSTFGPYVMGWYRQAPGKVRELVAVISGGSTDYADSVKGRFTISRDNAKNNVYLQINSLKPEDTAVYYCNAEYYFYLSPTVYLYDYWGQGTQVTVSS | high polyreactivity |
| QVQLVESGGGLVQAGGSLRLSCAASGSIFVGYTMGWYRQAPGKERELVADITYNGGTTYYADSVKGRFTISRDNAKNTVYLQMNSLKPEDSAVYYCAADYYYGWFPVYYWGQGTQVTVSS | high polyreactivity |
| QVQLVESGRGLVQAGGSLRLSCAPSGFTFYRNEMGWYRQAPGKERELVAAITFSGGITYYADSVKGRFTISRDNAKNTVYLQMNSLKPEDTAVYYGAAEGVGPARVYQGGEYNYWGQGTQVTVSS | low polyreactivity |
| QVQLVESGGGLVQAGGSLRLSCAASGRTSGFNTMGWYRQAPGKESELVAAISFSGGSTYYADSVKGRFTISRDNAKNTVYLHMNSLKPEDTAVYYCNALYRYLYRSGDYWGQGTQVTVSS | low polyreactivity |
| QVQLVETGGGLVQAGGSLRLSCAASGPTFSRNAKGWYRQAPGKERELVATISRGGGITFYADSVKGRFTISRDNAKNTVYLQMNSLKPEDTAVYYCNADVRYVGLRRIVDYWGQGTQVTVSS | high polyreactivity |
| QDQLVESGGGLVQEGGSLRLSCAASGRTFKHYVMGWYRQAPGKERELVATICGGGGTYYADSVKGRFTISRDNAKNSVYLQMISLKPEDTAVYYCAARYPRGSRTWSFDSNKQRDYWGQGTQVTVSS | low polyreactivity |
| QVQLVESGGGLVQAGGSLRLSCAASGRIFARYAMRMYRQAPEKERELVDYINSGDNTYYADSVKWRFTISRDNAKNTVYLQMNSLKPDATAVYYCAAVVGRRQSSSSRFEYDYWGQGTQVTVSS | low polyreactivity |
| QVQLVESGGGLVQAGGSHRLSCAASGSTFTYNAMGWYRQAPGKERELVASISSGTTTYYADSVKGRFTISRDNAKNTVYLQMNSLIPEDTAVYDCAVDSWSRVQGWLAHNYDYWGQGTQVTVSS | low polyreactivity |
